First the molecules themselves.
T1: MLL3_(ePHD6)_(1075–1144) (human, UniProt Q8NEZ4 1075-1144)
T1 construct: MLL3 (KMT2C), human, residues 1075–1144; also called MLL3_ePHD6, residues 1075–1144; source: E. coli BL21 (DE3) Codon plus RIL, purified (Ni-NTA, thrombin, HiTrap Q, Superdex75); not shown: GST, N-terminal, cleaved; His tag, N-terminal, cleaved
T1 sequence (looked up): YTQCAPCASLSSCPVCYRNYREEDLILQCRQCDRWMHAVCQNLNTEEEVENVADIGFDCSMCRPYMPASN

T2: MLL3_(PHD5-6)_(1008–1144) (human, UniProt Q8NEZ4 1008-1144)
T2 construct: MLL3 (KMT2C), human, residues 1008–1144; also called PHD5–6 of MLL3; source: E. coli BL21 (DE3) Codon plus RIL, purified (Ni-NTA, thrombin, HiTrap Q, Superdex75); not shown: GST, N-terminal, cleaved; His tag, N-terminal, cleaved
T2 sequence (looked up): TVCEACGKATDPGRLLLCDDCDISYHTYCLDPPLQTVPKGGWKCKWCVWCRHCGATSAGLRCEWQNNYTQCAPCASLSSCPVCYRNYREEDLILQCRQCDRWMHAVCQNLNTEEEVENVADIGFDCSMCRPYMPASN

T3: MLL3_(ePHD6)_(1055–1144) (human, UniProt Q8NEZ4 1055-1144)
T3 construct: MLL3 (KMT2C), human, residues 1055–1144: the zinc finger before PHD6 and the sixth PHD domain; Monomer in solution by gel filtration; the dimer in the crystal is put down to crystal packing; also called extended PHD6 domain of MLL3; source: E. coli BL21 (DE3) Codon plus RIL, purified (Ni-NTA, thrombin, HiTrap Q, Superdex75); not shown: GST, N-terminal, cleaved; His tag, N-terminal, cleaved
T3 sequence (looked up): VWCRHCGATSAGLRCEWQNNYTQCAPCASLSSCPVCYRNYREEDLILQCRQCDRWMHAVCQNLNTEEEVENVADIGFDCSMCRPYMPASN

B1: histone H4 peptide H4_(11–21) (peptide, UniProt P62805 12-22, looked up)
peptide: GKGGAKRHRKV
notes: histone H4, residues 11–21; also called H4H18 peptide; source: synthetic peptide (Peptide 2.0 Inc.)
B2: MLL4_(ePHD6)_(1475–1564) (domain or fragment, human, UniProt O14686 1475-1564, looked up)
chain: VSCMQCGAASPGFHCEWQNSYTHCGPCASLVTCPICHAPYVEEDLLIQCRHCERWMHAGCESLFTEDDVEQAADEGFDCVSCQPYVVKPV
notes: MLL4 (KMT2D, ALR), human, residues 1475–1564: the zinc finger before PHD6 and the sixth PHD domain; also called extended PHD6 domain of MLL4; source: E. coli BL21 (DE3) Codon plus RIL, purified (Ni-NTA, thrombin, HiTrap Q, Superdex75); not shown: GST, N-terminal, cleaved; His tag, N-terminal, cleaved
B3: MLL4_(PHD6)_(1505–1564) (domain or fragment, human, UniProt O14686 1505-1564, looked up)
chain: VTCPICHAPYVEEDLLIQCRHCERWMHAGCESLFTEDDVEQAADEGFDCVSCQPYVVKPV
notes: MLL4 (KMT2D), human, residues 1505–1564 (sixth PHD domain alone); also called PHD6 domain of MLL4; source: E. coli BL21 (DE3) Codon plus RIL, purified (Ni-NTA, thrombin, HiTrap Q, Superdex75); not shown: GST, N-terminal, cleaved; His tag, N-terminal, cleaved

For series [1], the target named is T4, MLL4_(ePHD6)_(1495–1564) (human, UniProt O14686 1495-1564).
T4 construct: MLL4 (KMT2D), human, residues 1495–1564; also called MLL4_ePHD6, residues 1495–1564; source: E. coli BL21 (DE3) Codon plus RIL, purified (Ni-NTA, thrombin, HiTrap Q, Superdex75); not shown: GST, N-terminal, cleaved; His tag, N-terminal, cleaved
Briefly: ITC; peptide (1–2 mM) in the syringe injected into protein (50–100 μM) in the cell; 25 °C; 20 mM Tris pH 7.5, 150 mM NaCl; single-site binding model. The settings on record: both partners purified. A general note: ITC needs no label: the signal is the heat of the interaction.

For series [2], the target named is T1, MLL3_(ePHD6)_(1075–1144). The description is as above. The following applies: both partners purified.
The target of series [3] is T2, MLL3_(PHD5-6)_(1008–1144). The description is as above. The settings on record: both partners purified.
Series [4] addresses B2. The series is described as above. The settings on record: both partners purified.
Series [5] addresses T3, MLL3_(ePHD6)_(1055–1144). The description is as above. The settings on record: both partners purified.
Series [6] deals with the molecule itself. Briefly: SEC; gel-filtration profiles of the purified domains (Supplementary Fig. 3).

One may read the Kd as the constant that tells how readily two partners part at equilibrium. A low value points to higher affinity. Turning to B1, the Kd was 48 µM in series [1]; 31 µM in series [2]; 83 µM in series [3]; 52 µM in series [4]; 35 µM in series [5].

As a reminder, the stoichiometry N is the number of molecules, sites or subunits per partner or assembly. Consider B2, for which, in series [6], the “stoichiometry N” value was 2.

For B3, the “stoichiometry N” value in series [6] was 2.

The record behind these values is PMC6318328, “Structural insights into trans-histone regulation of H3K4 methylation by unique histone H4 binding of MLL3/4” (Nature Communications, 2019).
